The supplement of paper PMC10567573
± gives the standard deviation.

Experiment: protein stability index of a GFP-peptide fusion (GPS, HEK-293T) (PSI 1-6); higher = more stable
Conditions: c terminus: a fixed tail appended
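Further: 24-mer peptide tiles fused after GFP, lentivirally expressed, FACS-sorted into six equal bins by GFP/DsRed ratio, decoded by Illumina sequencing, PSI is the read-weighted mean bin number.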

Row | Sequence | protein stability index (treatment: DMSO) | protein stability index (treatment: MLN4924 1 uM, 8 h)
1 | VTHTEISPEQQFDRSVQRLLATRI [TMEM175] | 3.2 ± 0.28 | 3.34 ± 0.25
2 | VTMSSLFKHILRTEGAFGLYRGLA [SLC25A25] | 2.5 ± 0.69 | 2.65 ± 0.51
3 | VVCRQLGLGFASNAFQETWYWHGD [LOXL2] | 2.55 ± 0.55 | 2.42 ± 0.31
4 | VVKQFVTGIIDSLTISPKAARVGL [MATN2] | 2.15 ± 0.34 | 3.15 ± 1.4
5 | VVPEKLDDLVPKGKKFLLLSINRY [ALG2] | 2.07 ± 0.36 | 2.08 ± 0.42
6 | VVRLLLEHYRVQTQQTGTVRFDGY [FEM1B] | 2.62 ± 0.57 | 2.63 ± 0.58
7 | VWNMTATRPKKMGSQLPKPRMLRE [FATE1] | 2.94 ± 0.24 | 3 ± 0.12
8 | VYAGRPLSVIQMVAFLEQRASALL [FBXO34] | 1.98 ± 0.39 | 2.29 ± 0.35
9 | VYSWPKNKKNILLRLLREEEYVAP [TRAF3IP2] | 2.11 ± 0.68 | 2.5 ± 0.59
10 | WATRKPPAPKSTYECRCIGEEKEM [TIA1] | 2.98 ± 0.44 | 3.4 ± 0.58
11 | WDIGRGKLYHQSKGPGAPQYPAGT [SPSB2] | 3.72 ± 0.095 | 3.53 ± 0.07
12 | WDPSVQSCKEGLSPRGPAPGEEKF [ZNF263] | 5.43 ± 0.1 | 5.46 ± 0.092
13 | WDSGCLAPPSTRTSHSLPESSVPS [PLEKHN1] | 4.4 ± 0.59 | 4.64 ± 0.23
14 | WEFKLSDPDEVARRWGKRKNKPKM [ETS1] | 3.65 ± 0.27 | 3.67 ± 0.067
15 | WGVCEPQREEVEERMWAAIQSWDI [ZER1] | 3.35 ± 0.22 | 3.56 ± 0.3
16 | WICQRSTVASMMHRQETVDCLKKF [CAMK2D] | 2.67 ± 0.15 | 2.43 ± 0.64
17 | WMQVASLNEKRTFFHLSALKGYLY [KLHL13] | 2.76 ± 0.57 | 2.58 ± 0.36
18 | WQLFGPFGAVTNVKVIRDFTTNKC [ELAVL3] | 2.36 ± 0.37 | 2.2 ± 0.26
19 | WQLLLFLCATHFGEPLEKVASVGN [KISS1] | 2.78 ± 1.2 | 2.29 ± 0.35
20 | WSSRSPQERSRVLNQVADLLEQSL [ALDH8A1] | 2.8 ± 0.12 | 3.08 ± 0.54
21 | WTVANMEEIKKLTTDPDLILEVLR [LARP4] | 2.15 ± 0.29 | 2.62 ± 0.27
22 | YAILDEKKSELLQRITQEQEKKLS [TRIM63] | 4.35 ± 0.17 | 4.52 ± 0.13
23 | YAVGGSDGTSPLNTVERYNPQENR [KLHL20] | 4.53 ± 0.33 | 4.79 ± 0.28

Row | Sequence | protein stability index (treatment: DMSO) | protein stability index (treatment: MLN4924 1 uM, 8 h)
24 | YDVEMTDELVGLPFSSHTYSQASE [FBXO34] | 4.52 ± 0.32 | 4.52 ± 0.23
25 | YFISTVKRSWTSAQNACSEHGATL [CD69] | 2.09 ± 0.49 | 2.07 ± 0.3
26 | YGFYLRAGSEQKGQIIKDIDSGSP [PDZK1] | 3.2 ± 0.17 | 3.17 ± 0.36
27 | YGGSGDGLIPTGSGRHPSHSTTPS [ARFIP2] | 4.26 ± 0.069 | 4.51 ± 0.29
28 | YGTQRTLILESQNWRYATGGWETV [FUT8] | 2.1 ± 0.13 | 2.16 ± 0.14
29 | YHAVVEPMLWNPSGTPKRYSLELG [C22orf31] | 2.77 ± 0.54 | 2.81 ± 0.17
30 | YHPEEFVCSQCGKVLEEGGFFEEK [PDLIM7] | 3.94 ± 0.5 | 3.93 ± 0.57
31 | YKVSAASSFFFSGVFVGVISFGQL [SLC22A15] | 3.24 ± 0.1 | 3.25 ± 1.5
32 | YLHTVSDCDTSSICEDSFDGRSLS [SCARA5] | 4.37 ± 0.13 | 4.51 ± 0.14
33 | YLKNLPLLSKYCGYREDNIPQLED [TPH1] | 2.57 ± 0.09 | 2.77 ± 0.2
34 | YLPSTEFSVSSTSRRIYRCRNCIN [IQUB] | 2.62 ± 0.31 | 3.61 ± 0.38
35 | YLVENNANISIANKYDNTCLMIAA [FEM1B] | 2.38 ± 0.1 | 2.21 ± 0.22
36 | YMYLVIEELTREAVAVDVAVPKRL [HAGHL] | 2.57 ± 0.57 | 2.71 ± 0.41
37 | YNPHPGFPELGYSYGGGSASSQHS [DVL3] | 2.95 ± 0.36 | 3.29 ± 0.26
38 | YPCIPNHELVWAKMKGFGFWPAKV [ZMYND11] | 3.09 ± 1.4 | 2.19 ± 0.3
39 | YQPAPYFAAEARYPIYVIPEPPPV [TENT5D] | 2.02 ± 0.18 | 2.35 ± 0.55
40 | YSFRKLPDTQLLKFQLNKYTGEIK [PCDHGA10] | 2.39 ± 0.37 | 2.54 ± 0.3
41 | YSLASGAGGGGSKGNSLKRSKSIR [RAB40C] | 4.37 ± 0.17 | 4.41 ± 0.26
42 | YSLQMKRVIACQKTAHDSNVLHVA [WDR41] | 2.23 ± 0.14 | 2.38 ± 0.32
43 | YVINWFMSFGPEIKLNTSQQGRNQ [FAM104B] | 2.67 ± 1.7 | 2.53 ± 0.71
44 | YVLNLLYETKKHLVQLPNINRVST [PPEF2] | 2.49 ± 0.68 | 2.59 ± 0.39
45 | YVTTNVSLIPPRSEQLVNFTGKAE [TMEM106C] | 2.49 ± 0.57 | 2.8 ± 0.68
